Data taken from US20250376532A1 (published 2025).
One block for each binder: values may come before it.

What was measured:
[1] = biological target: rDR5-IgG4-Fc KYGQ:AAGA (45-48) Mut; experiment: BLI
[2] = biological target: DR5 (3RA); experiment: ELISA
[3] = biological target: DR5 (WT) (UniProt O14763 56-210, biotinylated for BLI (site not stated)); experiment: ELISA
[4] = biological target: rDR5-IgG4-Fc (UniProt O14763 56-210, biotinylated for BLI (site not stated)); experiment: BLI
[5] = biological target: rDR5-IgG4-Fc EMCR:AACR (98-101) Mut (90s Mut) (UniProt O14763 56-210, biotinylated for BLI (site not stated)); experiment: BLI
[6] = biological target: rDR5-IgG4-Fc SGE:AAA (135-137) NS Mut; experiment: BLI
[7] = biological target: R104Y DR5; experiment: BLI
[8] = biological target: R104W DR5; experiment: BLI
[9] = biological target: T1, rDR5-IgG4 (recombinant wild type DR5 with IgG4 Fc) (UniProt O14763 56-210, biotinylated for BLI (site not stated)); experiment: BLI
[10] = biological target: T1, rDR5-IgG4 (recombinant wild type DR5 …); experiment: BLI; remark: listed apart in the source
[11] = biological target: T1, rDR5-IgG4 (recombinant wild type DR5 …); experiment: ELISA
[12] = biological target: T1, rDR5-IgG4 (recombinant wild type DR5 …); experiment: ELISA; remark: listed apart in the source
[13] = biological target: KKCR; experiment: ELISA
[14] = biological target: RKCAR DR5; experiment: BLI
[15] = biological target: Monkey DR5; experiment: BLI
[16] = biological target: Chimp DR5; experiment: BLI
[17] = biological target: RKCSR DR5; experiment: BLI

Chain of R104W DR5 (chain, as listed by the source R104W): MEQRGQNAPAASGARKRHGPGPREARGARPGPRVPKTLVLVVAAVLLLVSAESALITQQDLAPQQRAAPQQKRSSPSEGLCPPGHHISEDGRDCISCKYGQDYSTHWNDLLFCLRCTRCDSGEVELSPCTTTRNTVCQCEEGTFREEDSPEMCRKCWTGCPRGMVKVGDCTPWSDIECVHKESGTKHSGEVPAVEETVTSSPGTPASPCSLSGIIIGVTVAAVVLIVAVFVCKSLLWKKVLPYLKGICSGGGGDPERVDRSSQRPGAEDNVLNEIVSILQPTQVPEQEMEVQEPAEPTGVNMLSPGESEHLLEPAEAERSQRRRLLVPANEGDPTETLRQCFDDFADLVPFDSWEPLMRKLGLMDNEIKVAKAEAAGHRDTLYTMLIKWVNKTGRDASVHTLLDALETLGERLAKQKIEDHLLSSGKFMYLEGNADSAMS
Chain of R104Y DR5 (chain, as listed by the source R104Y): as the sequence (chain, as listed by the source R104W) above, with W157Y counted along it

koff [1]: 1e-07 s⁻¹
Kd [2]: 0.087 nM
Kd [3]: 0.088 nM
Kd [4]: < 1 pM
koff [5]: 1.61e-05 s⁻¹
koff [6]: 2.01e-05 s⁻¹
B1: KMTR2 (antibody, V domains shown)
VH: QVQLVQSGAEMKKPGASVKVSCKTSGYTFTNYKINWVRQAPGQGLEWMGWMNPDTDSTGYPQKFQGRVTMTRNTSISTAYMELSSLRSEDTAVYYCARSYGSGSYYRDYYYGMDVWGQGTTVTVSS
VL: EIVLTQSPATLSLSPGERATLSCRASQSVSSYLAWYQQKPGQAPRLLIYDASNRATGIPARFSGSGSGTDFTLTISSLEPEDFAVYYCQQRSNWPLTFGGGTKVEIKR

Kd [7]: 1.93 nM
Kd [8]: 1.82 nM
Kd [9]: 0.0376 nM
Kd [10]: 0.519 nM
Kd [11]: 0.081 nM
Kd [12]: 0.032 nM
B2: lexatumumab (antibody, V domains shown)
VH: EVQLVQSGGGVERPGGSLRLSCAASGFTFDDYGMSWVRQAPGKGLEWVSGINWNGGSTGYADSVKGRVTISRDNAKNSLYLQMNSLRAEDTAVYYCAKILGAGRGWYFDLWGKGTTVTVSS
VL: SSELTQDPAVSVALGQTVRITCQGDSLRSYYASWYQQKPGQAPVLVIYGKNNRPSGIPDRFSGSSSGNTASLTITGAQAEDEADYYCNSRDSSGNHVVFGGGTKLTVL

Kd [13]: 1.19 nM
B3: Antibody (antibody, V domains shown)
VH: B2 VH
VL: B2 VL

Kd [14]: 0.266 nM
Kd [15]: 0.014 nM
Kd [16]: < 1 pM
Kd [17]: 0.215 nM
B4: Biot-Lexa (antibody, V domains shown)
VH: B2 VH
VL: B2 VL
